Read-outs that look alike come from different tables or passages of the source.
Assays:
[1] = molecular target: T1, FcRn-p3 fusion protein (human, UniProt P55899 24-297; P61769 21-119); experiment: phage ELISA pH6
T1 construct: baculovirus expressed; coated on ELISA wells; not shown: amino terminal part of bacteriophage p3 protein and CVDE protein

[2] = molecular target: T1, FcRn-p3 fusion protein; experiment: phage ELISA pH6; remark: listed apart in the source
[3] = molecular target: T1, FcRn-p3 fusion protein; experiment: phage ELISA pH6 (est.)
[4] = molecular target: T1, FcRn-p3 fusion protein; experiment: phage ELISA pH6 (est.); remark: listed apart in the source
[5] = molecular target: T1, FcRn-p3 fusion protein; experiment: phage ELISA pH6 (est.); remark: listed apart in the source
[6] = molecular target: T1, FcRn-p3 fusion protein; experiment: phage ELISA pH6; remark: listed apart in the source
[7] = molecular target: T1, FcRn-p3 fusion protein; experiment: phage ELISA pH6; remark: listed apart in the source
[8] = molecular target: T1, FcRn-p3 fusion protein; experiment: ELISA pH6, soluble Fc on coated FcRn-p3
[9] = molecular target: T2, recombinant soluble human FcRn (human, UniProt P55899 24-297; P61769 21-119); experiment: SPR pH6, immobilized FcRn, steady state
T2 construct: amine-coupled to the SPR chip
T2 sequence (P55899 24-297, chain 1 of 2): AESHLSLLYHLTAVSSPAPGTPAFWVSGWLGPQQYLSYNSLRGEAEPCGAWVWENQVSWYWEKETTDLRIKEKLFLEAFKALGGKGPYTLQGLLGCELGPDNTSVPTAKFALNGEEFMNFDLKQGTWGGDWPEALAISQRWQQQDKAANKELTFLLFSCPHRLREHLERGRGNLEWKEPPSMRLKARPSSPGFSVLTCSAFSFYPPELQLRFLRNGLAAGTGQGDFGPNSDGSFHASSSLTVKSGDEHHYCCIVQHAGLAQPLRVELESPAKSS
T2 sequence (P61769 21-119, chain 2 of 2): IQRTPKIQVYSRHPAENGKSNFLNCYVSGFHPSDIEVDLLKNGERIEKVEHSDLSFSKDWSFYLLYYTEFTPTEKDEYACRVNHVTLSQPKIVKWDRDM

[10] = molecular target: T1, FcRn-p3 fusion protein; experiment: ELISA pH6, soluble Fc on coated FcRn-p3; remark: listed apart in the source
[11] = molecular target: T2, recombinant soluble human FcRn; experiment: SPR pH6, immobilized FcRn, steady state; remark: listed apart in the source

T1 sequence (P55899 24-297, chain 1 of 2): as the sequence (P55899 24-297, chain 1 of 2) above
T1 sequence (P61769 21-119, chain 2 of 2): as the sequence (P61769 21-119, chain 2 of 2) above

Binder | Ratio/Fc-H [1] [fold] | Ratio/Fc-H [2] [fold] | Ratio/FWT [3] [fold] | Ratio/Fc-WT [4] [fold] | phage-ELISA ratio/WT [5] [fold] | further results
C6A_69 (other, EU numbering) CPPCPAPELLGGPSVFLFPPKPKDTLMISRTPEVTCVVVDVSHEDPEVKFNWYVDGVEVHNAKTKPREEQYNSTYRVVSVLAVLHQDWLDGKEYKCKVSNKALPVPIEKTISKAKGQPREPQVYTLPPSRDELTKNQVSLTCLVKGFYPSDIAVEWVSNGQPETNYKTTPPVLDSDGSFFLYSKLTVDKSRWQQGNVFSCSVMHEALHYHYTQKSLSLSPGK | 8.9 | 8.9 | 28.4 | 28.4 | 28.4 | –
C6A_72 (other, EU numbering) CPPCPAPELLGGPSVFLFPPKPKDALMISRTPEVTCVVVDVSHEDPEVKFNWYVDGVEVHNAKTKPREEQYNSTYRVVSVLTVLHQDWLNGKEYKCKVSNKALPAPIEKTISKAKGQPREPQVYTLPPSRDELTKNQVSLTCLVKGFYPSDIAVEWESNGQPEKNYKTTPPVLDSDGSFFLYSKLTVDKSRWQQGNVFSCSVMHEALHYHYTQKSLSLSPGK | 8 | 8 | 25.7 | 25.7 | 25.7 | –
S3A_07 (other, EU numbering) CPPCPAPELLGGPSVFLFPPKPKDTLMISRTPEVTCVVEDVSHEDPEVKFNWYVDGVEVHNAKTKPREEQYNSTYRVVSVLTVLHQDWLNGKEYKCKVSNKALPAPIEKTISKAKGQPREPQVYTLPPSRDELTKNQVSLTCLVKGFYPSDIVVEWGSNGQPENNYKTTPPVLDSDGSFFLYSKLTVDKSRWQQGNVFSCSVMHEALHNHYTQKSLSLSPGK | – | – | – | – | – | Ratio/Fc-WT [6]: 3.5 fold; phage-ELISA Ratio/Fc-WT [7]: 3.5 fold
T5A_81 (other, EU numbering) CPPCPAPELLGGPSVFLFPPKPKDTLMISRTPEVTCVVEDVSHEDPEVKFNWYVDGVEVHNAKTKPREEQYNSTYRVVSVLTVLHQDWLNGKEYKCKVSNKALPAPIEKTISKAKGQPREPQVYTLPPSRDELTKNQVSLTCLVKGFYPSDIVVEWESNGQPENNYKTTPPVLDSDGSFFLYSKLTVDKSKWQQGNVFSCSVMHEALHNHYTQKSLSLSPGK | 4.6 | 4.6 | 14.9 | 14.9 | 14.9 | –
S3A_07 (soluble recombinant Fc polypeptide) (other, EU numbering; E. coli periplasmic expression; not shown: C-terminal 6xHis tag and V5 tag) CPPCPAPELLGGPSVFLFPPKPKDTLMISRTPEVTCVVEDVSHEDPEVKFNWYVDGVEVHNAKTKPREEQYNSTYRVVSVLTVLHQDWLNGKEYKCKVSNKALPAPIEKTISKAKGQPREPQVYTLPPSRDELTKNQVSLTCLVKGFYPSDIVVEWGSNGQPENNYKTTPPVLDSDGSFFLYSKLTVDKSRWQQGNVFSCSVMHEALHNHYTQKSLSLSPGK | – | – | – | – | – | Fc-rec-ELISA Ratio/WT [8]: 25.3 fold; SPR Ratio/Fc-WT (Fc-WT Kd / variant Kd) [9]: 5.2 fold
T5A_94 (soluble recombinant Fc polypeptide) (other, EU numbering; E. coli periplasmic expression; not shown: C-terminal 6xHis tag and V5 tag) CPPCPAPELLGGPSVFLFPPKPKDTLMISRTPEVTCVVEDVSHEDPEVKFNWYVDGVEVHNAKTKPREEQYNSTYRVVSVLTVLHQDWLNGKEYKCKVSNKALPAPIEKTISKAKGQPREPQVYTLPPSRDELTKNQVSLTCLVKGFYPSDITVEWESNGQPENNYKTTPLVLDSDGSFFLYSKLTVDKSRWQQGNVFSCSVMHEALHNHYTQKSLSLSPGK | – | – | – | – | – | EC50 [10]: 166 nM; Kd [11]: 13.7 nM
